From patent publication US10800847

How the values were obtained:
[1] = molecular target: HLA-B*1503 (B72) (human); experiment: Luminex iBeads (#6), IVIg diluted 1:8
[2] = molecular target: HLA-B*1501 (B62) (human); experiment: Luminex iBeads (#6), IVIg diluted 1:8
[3] = molecular target: HLA-B*1512 (B76) (human); experiment: Luminex iBeads (#6), IVIg diluted 1:8
[4] = molecular target: HLA-B*1502 (B75) (human); experiment: Luminex iBeads (#6), IVIg diluted 1:8
[5] = molecular target: HLA-B*1511 (B75) (human); experiment: Luminex iBeads (#6), IVIg diluted 1:8
[6] = molecular target: HLA-B*1801 (B18) (human); experiment: Luminex iBeads (#6), IVIg diluted 1:8
[7] = molecular target: HLA-B*1510 (B71) (human); experiment: Luminex iBeads (#6), IVIg diluted 1:8
[8] = molecular target: HLA-B*1513 (B77) (human); experiment: Luminex iBeads (#6), IVIg diluted 1:8
[9] = molecular target: Serum albumin on negative control beads (HSA/BSA) (human or bovine); experiment: Luminex iBeads (#6), IVIg diluted 1:8
[10] = molecular target: HLA-B*1302 (B13) (human); experiment: Luminex iBeads (#6), IVIg diluted 1:8
[11] = molecular target: HLA-B*1402 (B65) (human); experiment: Luminex iBeads (#6), IVIg diluted 1:8
[12] = molecular target: HLA-B*0801 (B8) (human); experiment: Luminex iBeads (#6), IVIg diluted 1:8
[13] = molecular target: HLA-B*1301 (B13) (human); experiment: Luminex iBeads (#6), IVIg diluted 1:8
[14] = molecular target: HLA-B*1516 (B63) (human); experiment: Luminex iBeads (#6), IVIg diluted 1:8
[15] = molecular target: HLA-B*0702 (B7) (human); experiment: Luminex iBeads (#6), IVIg diluted 1:8
[16] = molecular target: HLA-Cw*0302 (Cw10) (human); experiment: Luminex, iBead vs regular bead MFI, 1:8
[17] = molecular target: HLA-Cw*1502 (Cw15) (human); experiment: Luminex, iBead vs regular bead MFI, 1:8
[18] = molecular target: HLA-Cw*0401 (Cw4) (human); experiment: Luminex, iBead vs regular bead MFI, 1:8
[19] = molecular target: HLA-A*6602 (A66) single antigen on beads (human); experiment: Luminex iBeads (#6), IVIg 1:8
[20] = molecular target: HLA-A*3001 (A30) single antigen on beads (human); experiment: Luminex iBeads (#6), IVIg 1:8
[21] = molecular target: HLA-A*3101 (A31) single antigen on beads (human); experiment: Luminex iBeads (#6), IVIg 1:8
[22] = molecular target: HLA-A*3002 (A30) single antigen on beads (human); experiment: Luminex iBeads (#6), IVIg 1:8
[23] = molecular target: HLA-A*3303 (A33) single antigen on beads (human); experiment: Luminex iBeads (#6), IVIg 1:8
[24] = molecular target: HLA-A*2902 (A29) single antigen on beads (human); experiment: Luminex iBeads (#6), IVIg 1:8
[25] = molecular target: HLA-A*6601 (A66) single antigen on beads (human); experiment: Luminex iBeads (#6), IVIg 1:8
[26] = molecular target: HLA-A*3402 (A34) single antigen on beads (human); experiment: Luminex iBeads (#6), IVIg 1:8
[27] = molecular target: HLA-A*3401 (A34) single antigen on beads (human); experiment: Luminex iBeads (#6), IVIg 1:8
[28] = molecular target: HLA-A*3601 (A36) single antigen on beads (human); experiment: Luminex iBeads (#6), IVIg 1:8
[29] = molecular target: HLA-A*4301 (A43) single antigen on beads (human); experiment: Luminex iBeads (#6), IVIg 1:8
[30] = molecular target: HLA-A*3201 (A32) single antigen on beads (human); experiment: Luminex iBeads (#6), IVIg 1:8
[31] = molecular target: HLA-A*6602 (A66) single antigen on beads (human); experiment: Luminex single-antigen regular beads (#7), IVIg 1:8
[32] = molecular target: HLA-A*3001 (A30) single antigen on beads (human); experiment: as above
[33] = molecular target: HLA-A*3101 (A31) single antigen on beads (human); experiment: as above
[34] = molecular target: HLA-A*3002 (A30) single antigen on beads (human); experiment: as above
[35] = molecular target: HLA-A*3301 (A33) single antigen on beads (human); experiment: as above
[36] = molecular target: HLA-A*3303 (A33) single antigen on beads (human); experiment: as above
[37] = molecular target: HLA-A*2902 (A29) single antigen on beads (human); experiment: as above
[38] = molecular target: HLA-A*6601 (A66) single antigen on beads (human); experiment: as above
[39] = molecular target: HLA-A*3402 (A34) single antigen on beads (human); experiment: as above
[40] = molecular target: HLA-A*3401 (A34) single antigen on beads (human); experiment: as above
[41] = molecular target: HLA-A*6801 (A68) single antigen on beads (human); experiment: as above
[42] = molecular target: HLA-A*3601 (A36) single antigen on beads (human); experiment: as above
[43] = molecular target: HLA-A*3201 (A32) single antigen on beads (human); experiment: as above
[44] = molecular target: HLA-A*3301 (A33) single antigen on beads (human); experiment: Luminex iBeads (#6), IVIg 1:8
[45] = molecular target: HLA-A*6801 (A68) single antigen on beads (human); experiment: Luminex iBeads (#6), IVIg 1:8

IVIg Gamunex-C Lot NKLK1 (antibody) was tested, and the MFI [1] was 0 MFI, the MFI [2] was 53 MFI and the MFI [3] was 1420 MFI. The MFI [4] was 91 MFI, the MFI [5] was 1860 MFI and the MFI [6] was 0 MFI. It also gave an MFI [7] of 347 MFI, an MFI [8] of 841 MFI and an MFI [9] of 7800 MFI. For the same substance, the MFI [10] was 0 MFI, the MFI [11] was 0 MFI and the MFI [12] was 0 MFI. For the same substance, the MFI [13] was 1030 MFI, the MFI [14] was 1210 MFI and the MFI [15] was 0 MFI. For the same substance, the Difference % [16] was -57%, the Difference % [17] was -68% and the Difference % [18] was -71%. The MFI [19] was 1860 MFI, the MFI [20] was 1340 MFI and the MFI [21] was 0 MFI. For the same substance, the MFI [22] was 1410 MFI, the MFI [23] was 517 MFI and the MFI [24] was 2890 MFI. For the same substance, the MFI [25] was 2330 MFI, the MFI [26] was 0 MFI and the MFI [27] was 3420 MFI. The MFI [28] was 1550 MFI, the MFI [29] was 2720 MFI and the MFI [30] was 915 MFI. It also gave an MFI [31] of 838 MFI, an MFI [32] of 1230 MFI and an MFI [33] of 0 MFI. It also gave an MFI [34] of 562 MFI, an MFI [35] of 925 MFI and an MFI [36] of 179 MFI. The MFI [37] was 820 MFI, the MFI [38] was 875 MFI and the MFI [39] was 0 MFI. For the same substance, the MFI [40] was 2150 MFI, the MFI [41] was 0 MFI and the MFI [42] was 704 MFI. It also gave an MFI [43] of 424 MFI.
“IVIg Octagam (Octapharma, Lachen, Switzerland) (antibody)” was tested, and the MFI [1] was 0 MFI, the MFI [2] was 0 MFI and the MFI [3] was 1380 MFI. It also gave an MFI [4] of 0 MFI, an MFI [5] of 1090 MFI and an MFI [6] of 0 MFI. It also gave an MFI [7] of 0 MFI, an MFI [10] of 0 MFI and an MFI [11] of 0 MFI. For the same substance, the MFI [12] was 114 MFI, the MFI [13] was 52 MFI and the MFI [14] was 880 MFI. For the same substance, the MFI [15] was 0 MFI, the Difference % [16] was -79% and the Difference % [17] was -95%. The Difference % [18] was -80%, the MFI [19] was 684 MFI and the MFI [20] was 510 MFI. The MFI [21] was 0 MFI, the MFI [22] was 369 MFI and the MFI [44] was 1360 MFI. It also gave an MFI [23] of 152 MFI, an MFI [24] of 2270 MFI and an MFI [25] of 1020 MFI. It also gave an MFI [26] of 0 MFI, an MFI [27] of 2060 MFI and an MFI [45] of 0 MFI. For the same substance, the MFI [28] was 572 MFI, the MFI [29] was 1690 MFI and the MFI [30] was 518 MFI. It also gave an MFI [31] of 3650 MFI, an MFI [32] of 928 MFI and an MFI [33] of 366 MFI. It also gave an MFI [34] of 533 MFI, an MFI [35] of 1490 MFI and an MFI [36] of 542 MFI. For the same substance, the MFI [37] was 1580 MFI, the MFI [38] was 1700 MFI and the MFI [39] was 0 MFI. It also gave an MFI [40] of 2880 MFI, an MFI [41] of 0 MFI and an MFI [42] of 778 MFI. For the same substance, the MFI [43] was 738 MFI.
For “IVIg GamaSTAN S/D (Talecris Biotherapeutics, USA) (antibody)”, the MFI [1] was 0 MFI, the MFI [2] was 394 MFI and the MFI [3] was 5970 MFI. It also gave an MFI [4] of 709 MFI, an MFI [5] of 2380 MFI and an MFI [6] of 0 MFI. For the same substance, the MFI [7] was 492 MFI, the MFI [8] was 904 MFI and the MFI [9] was 5030 MFI. The MFI [10] was 1200 MFI, the MFI [11] was 0 MFI and the MFI [12] was 324 MFI. It also gave an MFI [13] of 1840 MFI, an MFI [14] of 3280 MFI and an MFI [15] of 2010 MFI. The Difference % [17] was 24%, the Difference % [18] was -20% and the MFI [19] was 4320 MFI. The MFI [20] was 624 MFI, the MFI [21] was 351 MFI and the MFI [22] was 929 MFI. The MFI [44] was 1880 MFI, the MFI [23] was 725 MFI and the MFI [24] was 4430 MFI. The MFI [25] was 2610 MFI, the MFI [26] was 1210 MFI and the MFI [27] was 4320 MFI. It also gave an MFI [45] of 634 MFI, an MFI [28] of 1380 MFI and an MFI [29] of 4180 MFI. For the same substance, the MFI [30] was 1820 MFI, the MFI [31] was 2360 MFI and the MFI [32] was 924 MFI. It also gave an MFI [33] of 121 MFI, an MFI [34] of 1050 MFI and an MFI [35] of 1120 MFI. For the same substance, the MFI [36] was 322 MFI, the MFI [37] was 991 MFI and the MFI [38] was 1410 MFI. For the same substance, the MFI [39] was 684 MFI, the MFI [40] was 3040 MFI and the MFI [41] was 192 MFI. For the same substance, the MFI [42] was 564 MFI and the MFI [43] was 856 MFI.
Substance IVIg Gamunex-C Lot NKLG1 (antibody) has an MFI [1] of 507 MFI, an MFI [2] of 749 MFI and an MFI [3] of 2810 MFI. The MFI [5] was 3380 MFI, the MFI [6] was 1140 MFI and the MFI [7] was 1450 MFI. For the same substance, the MFI [8] was 2350 MFI, the MFI [9] was 7150 MFI and the MFI [10] was 1710 MFI. It also gave an MFI [11] of 929 MFI, an MFI [12] of 1510 MFI and an MFI [13] of 3560 MFI. The MFI [14] was 2400 MFI, the Difference % [16] was -2% and the Difference % [18] was -51%. For the same substance, the MFI [20] was 4470 MFI, the MFI [21] was 3410 MFI and the MFI [44] was 4460 MFI. For the same substance, the MFI [23] was 3330 MFI, the MFI [24] was 6010 MFI and the MFI [45] was 3150 MFI. It also gave an MFI [28] of 3950 MFI, an MFI [30] of 3760 MFI and an MFI [33] of 166 MFI. For the same substance, the MFI [34] was 896 MFI, the MFI [35] was 1690 MFI and the MFI [36] was 476 MFI. It also gave an MFI [37] of 1750 MFI, an MFI [38] of 648 MFI and an MFI [39] of 0 MFI. The MFI [40] was 3540 MFI, the MFI [41] was 0 MFI and the MFI [42] was 916 MFI. For the same substance, the MFI [43] was 875 MFI.
